These results are taken from US20020123056.

In the data set the test system is T1, GST-SGK2 fusion protein (human SGK2 with N-terminal Glutathione S-transferase tag, expressed in Hi5 insect cells).
T1 sequence: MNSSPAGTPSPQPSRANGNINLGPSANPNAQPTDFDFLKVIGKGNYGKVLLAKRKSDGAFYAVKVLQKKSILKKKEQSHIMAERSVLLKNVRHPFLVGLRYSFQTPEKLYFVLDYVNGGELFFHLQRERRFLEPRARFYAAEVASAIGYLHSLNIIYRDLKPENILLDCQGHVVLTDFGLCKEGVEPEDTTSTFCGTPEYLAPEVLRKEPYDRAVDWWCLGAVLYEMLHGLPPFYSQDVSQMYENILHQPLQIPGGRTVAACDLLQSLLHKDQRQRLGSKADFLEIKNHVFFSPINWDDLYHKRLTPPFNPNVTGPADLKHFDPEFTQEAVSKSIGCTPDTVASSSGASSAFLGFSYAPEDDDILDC

Take “active His-tag PDK1 (expressed in insect cells, purified on Talon affinity column)”: the “in vitro phosphorylation of SGK2 by PDK1 (32P, SDS-PAGE imaging)” value is on record as “SGK2 activated by PKD1 was significantly phosphorylated, while non-activated SGK2 was not”.
